2 molecules from article PMC515284, “Site-specific mutagenesis of Drosophila proliferating cell nuclear antigen enhances its effects on calf thymus DNA polymerase δ” (BMC Biochemistry, 2004) can be followed below.

Numbering of substitutions follows the chain as printed. Names and notes keep the numbering of the source.

In the test the target is T1, calf thymus DNA polymerase δ (two-subunit form) (bovine (endogenous in calf thymus), UniProt P28339 1-1106; P49004 1-469).
T1 construct: DNA polymerase δ larger, catalytic subunit p125, calf thymus (bovine); DNA polymerase δ smaller subunit p50, calf thymus (bovine); all experiments used the two-subunit form (p125 and p50); also called pol δ; calf thymus pol δ; source: purified from calf thymus (to apparent homogeneity)
T1 sequence (P28339 whole entry, stated change not applied, chain 1 of 2): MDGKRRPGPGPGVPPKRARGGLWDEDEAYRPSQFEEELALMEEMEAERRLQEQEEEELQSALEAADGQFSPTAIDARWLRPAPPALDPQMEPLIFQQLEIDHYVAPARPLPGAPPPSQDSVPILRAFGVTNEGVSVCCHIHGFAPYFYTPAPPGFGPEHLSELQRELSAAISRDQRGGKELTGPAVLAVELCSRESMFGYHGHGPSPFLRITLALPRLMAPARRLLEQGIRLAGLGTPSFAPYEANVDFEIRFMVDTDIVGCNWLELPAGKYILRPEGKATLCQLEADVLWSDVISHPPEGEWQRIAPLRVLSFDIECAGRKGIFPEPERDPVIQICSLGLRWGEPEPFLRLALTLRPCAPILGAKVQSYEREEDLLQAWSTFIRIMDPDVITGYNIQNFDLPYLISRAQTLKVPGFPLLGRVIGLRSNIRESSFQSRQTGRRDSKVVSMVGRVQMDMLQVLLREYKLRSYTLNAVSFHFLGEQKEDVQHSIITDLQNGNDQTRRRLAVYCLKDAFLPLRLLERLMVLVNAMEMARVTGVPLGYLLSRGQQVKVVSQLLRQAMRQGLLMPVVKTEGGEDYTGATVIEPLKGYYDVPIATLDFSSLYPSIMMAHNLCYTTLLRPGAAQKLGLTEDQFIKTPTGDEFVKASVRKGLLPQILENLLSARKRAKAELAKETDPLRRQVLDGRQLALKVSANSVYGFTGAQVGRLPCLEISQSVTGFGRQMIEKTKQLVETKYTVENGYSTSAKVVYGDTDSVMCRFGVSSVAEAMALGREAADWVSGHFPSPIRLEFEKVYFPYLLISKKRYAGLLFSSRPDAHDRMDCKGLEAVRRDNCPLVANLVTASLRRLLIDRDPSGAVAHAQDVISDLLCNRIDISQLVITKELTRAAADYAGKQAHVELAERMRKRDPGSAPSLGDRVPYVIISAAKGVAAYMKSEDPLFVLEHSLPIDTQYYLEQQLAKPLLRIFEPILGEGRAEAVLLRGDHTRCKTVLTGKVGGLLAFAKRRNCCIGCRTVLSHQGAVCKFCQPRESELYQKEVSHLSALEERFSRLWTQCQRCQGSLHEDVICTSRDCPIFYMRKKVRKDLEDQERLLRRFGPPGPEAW
T1 sequence (P49004 whole entry, stated change not applied, chain 2 of 2): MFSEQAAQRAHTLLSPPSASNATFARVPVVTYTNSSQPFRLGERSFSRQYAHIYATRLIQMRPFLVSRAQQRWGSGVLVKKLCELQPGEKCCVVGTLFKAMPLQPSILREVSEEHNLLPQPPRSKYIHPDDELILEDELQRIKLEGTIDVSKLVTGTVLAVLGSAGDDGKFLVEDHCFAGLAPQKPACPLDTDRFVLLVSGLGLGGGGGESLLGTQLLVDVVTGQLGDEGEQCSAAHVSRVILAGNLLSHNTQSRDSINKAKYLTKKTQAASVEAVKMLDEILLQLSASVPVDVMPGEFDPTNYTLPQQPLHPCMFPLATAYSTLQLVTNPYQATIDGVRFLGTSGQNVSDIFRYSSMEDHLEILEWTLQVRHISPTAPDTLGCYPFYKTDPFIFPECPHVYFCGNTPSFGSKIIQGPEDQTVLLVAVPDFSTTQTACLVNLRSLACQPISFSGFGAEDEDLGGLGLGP
Nature of the test: native gel or EMSA; nondenaturing PAGE band mobility shift of 32P-labelled 30-21-mer template-primer (0.1 pmol) with 10 ng pol δ and 70 ng PCNA; without MgCl2, 3 mM EDTA in incubation and gel buffer; essentially qualitative; the complex holds DNA as well. The settings on record: both partners purified. (In general: A gel shift assay detects complexes by their altered migration in electrophoresis.)

B1: NH2-terminally his-tagged Drosophila PCNA with amino acids 119-133 replaced by the corresponding human sequence (other, Drosophila melanogaster | human, UniProt P17917 1-118, looked up)
chain: MFEARLGQATILKKILDAIKDLLNEATFDCSDSGIQLQAMDNSHVSLVSLTLRSDGFDKFRCDRNLSMGMNLGSMAKILKCANNEDNVTMKAQDNADTVTIMFESANQEKVSDYEMKLMDLDVEQLGIPEQEYSCVVRMPAMEFARICRDLAQFSESVVICCTKEGVKFSASGDVGTANIKLAQTGSVDKEEEAVIIEMQEPVTLTFACRYLNAFTKATPLSTQVQLSMCADVPLVVEYAIKDLGHIRYYLAPKIEDNET
notes: PCNA, Drosophila melanogaster, the stretch before the interdomain connector loop (up to residue 118); PCNA, Drosophila melanogaster, the stretch after the interdomain connector loop (from residue 134); source: E. coli M15 [pREP4], purified (Ni2+-IDA Sepharose); not shown: His tag, N-terminal, kept
In the case of B1, the binding result is “binds”.

B2: NH2-terminally his-tagged Drosophila PCNA with glutamine 123 mutated to valine (natural protein, Drosophila melanogaster, UniProt P17917 1-260, looked up)
chain: B1 chain with D120N, Q125H, Q131T, E132D, Y133F
notes: proliferating cell nuclear antigen (PCNA), Drosophila melanogaster, with Q123V; also called Q123V dPCNA; Q123V; source: E. coli M15 [pREP4], purified (Ni2+-IDA Sepharose); not shown: His tag, N-terminal, kept
As to B2, the binding result is “binds”.
